The values that follow come from patent US8722856B2, “Anti-MUC1 antibody” (National University Corporation Hokkaido University, priority 2008, dated 2014).

Experiment [1] deals with T1, Biotin-2,3-ST(DT*R)-20 (Compound No. 16) (Homo sapiens, UniProt P15941).
T1 construct: Synthesis of MUC1 Tn20-mer Glycopeptide; made in house; host or cells: chemical solid-phase synthesis with enzymatic sialylation
Nature of the experiment: Hybridoma screening ELISA (selection of MUC1 antibody). Type of experiment: binding. The conditions noted are these: hybridoma culture supernatant. Here is the method: Ten days after cell fusion, screening of a specific antibody-producing cell was performed. ELISA was used in screening is as follows. To each well of a 384-well microtiter plate (manufactured by Nunc) 35 μl of a Tris buffer (50 mM Tris-HCl, pH 7.5) containing 0.35 μg of an anti-mouse IgG antibody (manufactured by Shibayagi Co., Ltd.) was added to immobilize the antibody at 4° C. for 16 hours. After these wells were washed with 90 μl of a washing solution (physiological saline containing 0.01% Tween 20) once, 200 μl of BLOCK ACE (manufactured by Dainippon Sumitomo Pharma Co., Ltd.) was added, and this was allowed to stand at room temperature for 2 hours for blocking (an anti-mouse IgG antibody solid-phased plate). […] Then, after each well was washed with 90 μl of a washing solution three times, 25 μl of TMB+-Substrate-Chromogen (manufactured by DAKO) was added to develop a color at room temperature for 30 minutes, 25 μl of 0.05 M sulfuric acid was added to stop the reaction, and absorbance was measured at 450 nm. […] Using a mouse monoclonal antibody isotyping ELISA kit (manufactured by BD Bioscience), a subclass of the antibody was determined and, as a result, an isotype of 1B2 was IgG2a.
(An ELISA detects its analyte on a solid surface through an enzyme-linked reagent.)

Experiment [2] has as its system human mammary gland epithelial cell 184A1. Nature of the experiment: Binding of antibody to cell with FACS. Type of experiment: cell-based. Here is the method:
Whether the MUC1 protein expressed on a surface of a cancer cell membrane and the 1B2 antibody bound thereto was investigated by FACS. A human breast cancer cell strain T-47D (ATCC, HTB-133) and a human mammary gland epithelial cell 184A1 (ATCC, CRL-8798) which had been trypsinized with Trypsin (manufactured by Invitrogen) were washed once with a FACS buffer (PBS containing 5% FCS, 0.05% sodium azide), and suspended in 100 μl of a FACS buffer containing 10 μg/ml 1B2 antibody and the reaction was allowed to proceed at room temperature for 2 hours. The resultant reaction product was washed with a FACS buffer two times, and suspended in 200 μl of FITC-Goat Anti-Mouse IgG (manufactured by ZYMED), and the reaction was allowed to proceed at room temperature for 1 hour. After washing with a FACS buffer two times, analysis was performed by FACSAria (manufactured by BD). As a result, in T-47D, the 1B2 antibody greatly shifted the fluorescent signal of FACS (about 300-fold) as compared with a control mouse IgG2a antibody (manufactured by SIGMA-ALDRICH), while in 184A, fluorescent shift by 1B2 was scarcely seen (about 2-fold).

Experiment [3] deals with T2, ST2-6(DT*R)-20 (Compound No. 10) (Homo sapiens, UniProt P15941).
T2 construct: Synthesis of MUC1 Tn20-mer Glycopeptide; made in house; host or cells: chemical solid-phase synthesis
T2 sequence (P15941 136-155): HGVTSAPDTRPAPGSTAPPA
In words: Sugar chain specificity, competitive ELISA against Biotin-Tn(DT*R)-100. The settings on record: glycopeptide ST2-6 (Compound No. 10). Type of experiment: binding. On the procedure: (§1) Such specificity can be expressed by a difference in cross reactivity. The cross reactivity is obtained by a calculation equation of (IC50 for cancer-associated structure 2,3ST/IC50 for sugar chain structure to be compared)×100(%). As used herein, inclusion of specificity refers to a difference of 2 fold or more.
(§2) Ten days after cell fusion, screening of a specific antibody-producing cell was performed. ELISA was used in screening is as follows. To each well of a 384-well microtiter plate (manufactured by Nunc) 35 μl of a Tris buffer (50 mM Tris-HCl, pH 7.5) containing 0.35 μg of an anti-mouse IgG antibody (manufactured by Shibayagi Co., Ltd.) was added to immobilize the antibody at 4° C. for 16 hours. After these wells were washed with 90 μl of a washing solution (physiological saline containing 0.01% Tween 20) once, 200 μl of BLOCK ACE (manufactured by Dainippon Sumitomo Pharma Co., Ltd.) was added, and this was allowed to stand at room temperature for 2 hours for blocking (an anti-mouse IgG antibody solid-phased plate). After each well was washed with 90 μl of a washing solution once, 10 μl of a hybridoma culture supernatant, 10 μl of a buffer A (50 mM Tris buffer containing 0.5% bovine serum albumin, 0.01% Tween 80, 0.05% Proclin 150, and 0.15 M. NaCl, pH 7.4), and 10 μl of a buffer A containing 0.01 ng of Biotin-2,3-ST(DT*R)-20 (Compound No. 16 of Table 1) and 2 ng of Streptavidin-HRP (manufactured by PIERCE) were added to perform a reaction at 4° C. for 16 hours. Then, after each well was washed with 90 μl of a washing solution three times, 25 μl of TMB+-Substrate-Chromogen (manufactured by DAKO) was added to develop a color at room temperature for 30 minutes, 25 μl of 0.05 M sulfuric acid was added to stop the reaction, and absorbance was measured at 450 nm. […] Using a mouse monoclonal antibody isotyping ELISA kit (manufactured by BD Bioscience), a subclass of the antibody was determined and, as a result, an isotype of 1B2 was IgG2a.
(§3) Fifteen (15) μl of a buffer A containing a MUC1 antibody was added to an anti-mouse IgG antibody solid-phased plate and the reaction was allowed to proceed at room temperature for 3 hours. […] Then, after each well was washed with 90 μl of a washing solution three times, 15 μl of TMB+-Substrate-Chromogen (manufactured by DAKO) was added to develop a color at room temperature for 30 minutes, 15 μl of 0.05 M sulfuric acid was added to stop the reaction, and absorbance at 450 nm was measured.

For experiment [4], the target named is T3, 2,3-ST6SL(DT*R)-20 (Compound No. 8) (Homo sapiens, UniProt P15941).
T3 construct: Synthesis of MUC1 Tn20-mer Glycopeptide; made in house; host or cells: chemical solid-phase synthesis (Compound 5), then enzymatic sugar extension
Described as above. Type of experiment: binding. The settings on record: glycopeptide 2,3ST6SL (Compound No. 8). Here is the method:
as §1, §2, §3

The target in experiment [5] is T4, C6(DT*R)-20 (Compound No. 9) (Homo sapiens, UniProt P15941).
T4 construct: Synthesis of MUC1 Tn20-mer Glycopeptide; made in house; host or cells: chemical solid-phase synthesis
Described as above. Type of experiment: binding. The conditions noted are these: glycopeptide C6 (Compound No. 9). Here is the method: as §1, §2, §3

Experiment [6] deals with normal tissue around a breast cancer. Nature of the experiment: Immunological tissue staining. More on the design: species or system human. The conditions noted are these: formalin-fixed, paraffin-embedded normal tissue around the breast cancer. The source says: Immunological tissue staining of the 1B2 antibody to a piece of a human breast cancer tissue and a normal tissue around a breast cancer (BioCahin) which had been formalin-fixed and paraffin-embedded was implemented using the Vectastain elite ABC kit (manufactured by Vector Laboratories) and DAB (manufactured by Roche) according to the attached manual.

B1: 1B2: mouse monoclonal anti-MUC1 antibody, isotype IgG2a, clone from immunization with 2,3-ST(DT*R)-20 conjugated to BSA (antibody, V domains shown)
VH: MEWIWIFLFILSGTAGVQSQVQLQQSGAELARPGASVKLSCKASGYTFTNYGLSWVKQRTGQGLEWIGENHPGSGIIYHNEKFRGKATLTADKSSSTAYVQLSSLTSEDSAVYFCARSSGTRGFAYWGQGTLVTVSA
VL: MKLPVRLLVLMFWIPASSSDVLMTQTPLSLPVSLGDQASISCRSSQSIVHSNGNTYLEWYLQKPGQSPKLLIYKVSNRFSGVPDRFSGSGSGTDFTLKISRVEAEDLGVYYCFQGSHGPWTFGGGTKLEIKRA
modifications: Antibody 1B2 VH sequence; Antibody 1B2 VL sequence
As to B1, in experiment [1], the “affinity for 2,3-ST(DT*R)-20 in screening” value is recorded as “strong affinity”. Also, in experiment [2] (184A1), the “reaction with mammary gland epithelial cell (FACS)” value was “hardly reacts”. Also, the “shift of fluorescent signal of FACS as compared with control mouse IgG2a antibody” value in experiment [2] (184A1, 10 μg/ml antibody) is reported as “about 2 fold”. Moreover, the figures for the “Cross reactivity letting 2,3-ST to be 100%” value in experiment [3], in experiment [4] and in experiment [5] were 0.15%, 0.064% and 0.75%, respectively. Besides, in experiment [6], the stained image entry is listed as “scarcely recognized”.
